Results reported in publication PMC4383587, “The Evolutionary Origination and Diversification of a Dimorphic Gene Regulatory Network through Parallel Innovations in cis and trans”.

B1: Motif 4 (t_MSE2 site S4, Probe 5) (dsDNA)
DNA 1: ATGTATACTAATTAGACAGTCTCTTTTTTT
DNA 2: AAAAAAAGAGACTGTCTAATTAGTATACAT
B2: Motif 3 (t_MSE2 site S3, Probe 4) (dsDNA)
DNA 1: GAGAATTCAAGATCATAATATGTATACTAA
DNA 2: TTAGTATACATATTATGATCTTGAATTCTC
B3: Motif 5 (t_MSE2 site S5, Probe 6) (dsDNA)
DNA 1: TTTTTATTACTTCAACTATTCAAATTT
DNA 2: AAATTTGAATAGTTGAAGTAATAAAAA

Biological target: GST-Abd-A DBD (Drosophila melanogaster, UniProt P29555-2 136-209)
Sequence (P29555 396-469): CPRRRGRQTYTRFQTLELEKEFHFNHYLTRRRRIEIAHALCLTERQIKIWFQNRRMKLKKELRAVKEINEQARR
Experiment: EMSA; 50 mM HEPES pH 7.9, 100 mM KCl, 1 mM DTT, 12.5 mM MgCl2, 0.05 mM EDTA, 17% glycerol, 400 ng/ul poly(dI-dC), 20 fmol probe, 0-3000 ng protein, 30 min on ice
Settings: protein: recombinant; tags: N-terminal GST (pGEX4T1); label: 3' biotin on each strand; blunt

Binding result, binds:
B1
B2
B3
